# Measurements published in patent publication US20060121032A1 (published 2006).
# Target: extracellular region of human V158 FcγRIIIa with C-terminal 6×His-tag and GST-tag (human, UniProt P08637 17-208)
# Experiment: SPR
# extracellular region of human V158 FcγRIIIa with C-terminal 6×His-tag and GST-tag, sequence (P08637 17-208 F176V): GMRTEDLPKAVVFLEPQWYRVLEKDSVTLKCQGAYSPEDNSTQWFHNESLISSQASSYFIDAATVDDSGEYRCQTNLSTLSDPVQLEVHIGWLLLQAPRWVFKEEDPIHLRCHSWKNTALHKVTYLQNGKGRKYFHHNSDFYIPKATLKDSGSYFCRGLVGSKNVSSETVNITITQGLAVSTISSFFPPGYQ
row,Fold WT,Binder
1,2.62 fold,alemtuzumab S267E (antibody) chain 1: not shown chain 2: not shown
2,1.51 fold,alemtuzumab V284E (antibody) chain 1: not shown chain 2: not shown
3,2.56 fold,alemtuzumab E283L (antibody) chain 1: not shown chain 2: not shown
4,5.5 fold,alemtuzumab E258H (antibody) chain 1: not shown chain 2: not shown
5,2.31 fold,alemtuzumab E283H (antibody) chain 1: not shown chain 2: not shown
6,5.66 fold,alemtuzumab H268D (antibody) chain 1: not shown chain 2: not shown
7,22.4 fold,alemtuzumab K246H (antibody) chain 1: not shown chain 2: not shown
8,7.07 fold,alemtuzumab K246Y (antibody) chain 1: not shown chain 2: not shown
9,14.2 fold,alemtuzumab S324G (antibody) chain 1: not shown chain 2: not shown
10,1.41 fold,alemtuzumab R255Y (antibody) chain 1: not shown chain 2: not shown
11,1.41 fold,alemtuzumab E272P (antibody) chain 1: not shown chain 2: not shown
12,1.77 fold,alemtuzumab E258Y (antibody) chain 1: not shown chain 2: not shown
13,6.69 fold,alemtuzumab G236S (antibody) chain 1: not shown chain 2: not shown
14,12.8 fold,alemtuzumab S304T (antibody) chain 1: not shown chain 2: not shown
15,384 fold,alemtuzumab E272H (antibody) chain 1: not shown chain 2: not shown
